Measured values from patent publication US20110293613A1 (Hoffmann-La Roche, published 2011).

Assays:
[1] = target: T1, human Insulin-like growth factor I receptor (IGF-1R) on tumor cells (human, UniProt P08069 31-1367); assay: competitive FACS binding on TC-71 cells, competitor labeled <IGF-1R> HUMAB Clone 18, Exp. #2
T1 construct: Endogenously expressed on the human tumor cell lines; also called IGF-IR; CD 221 antigen

[2] = target: T1, human Insulin-like growth factor I …; assay: competitive FACS binding on A549 cells, competitor labeled <IGF-1R> HUMAB Clone 18, Exp. #2
[3] = target: T1, human Insulin-like growth factor I …; assay: competitive FACS binding on TC-71 cells, competitor labeled <IGF-1R> HUMAB Clone 18, Exp. #1
[4] = target: T1, human Insulin-like growth factor I …; assay: competitive FACS binding on A549 cells, competitor labeled <IGF-1R> HUMAB Clone 18, Exp. #1

T1 sequence (P08069 31-1367 limits assumed): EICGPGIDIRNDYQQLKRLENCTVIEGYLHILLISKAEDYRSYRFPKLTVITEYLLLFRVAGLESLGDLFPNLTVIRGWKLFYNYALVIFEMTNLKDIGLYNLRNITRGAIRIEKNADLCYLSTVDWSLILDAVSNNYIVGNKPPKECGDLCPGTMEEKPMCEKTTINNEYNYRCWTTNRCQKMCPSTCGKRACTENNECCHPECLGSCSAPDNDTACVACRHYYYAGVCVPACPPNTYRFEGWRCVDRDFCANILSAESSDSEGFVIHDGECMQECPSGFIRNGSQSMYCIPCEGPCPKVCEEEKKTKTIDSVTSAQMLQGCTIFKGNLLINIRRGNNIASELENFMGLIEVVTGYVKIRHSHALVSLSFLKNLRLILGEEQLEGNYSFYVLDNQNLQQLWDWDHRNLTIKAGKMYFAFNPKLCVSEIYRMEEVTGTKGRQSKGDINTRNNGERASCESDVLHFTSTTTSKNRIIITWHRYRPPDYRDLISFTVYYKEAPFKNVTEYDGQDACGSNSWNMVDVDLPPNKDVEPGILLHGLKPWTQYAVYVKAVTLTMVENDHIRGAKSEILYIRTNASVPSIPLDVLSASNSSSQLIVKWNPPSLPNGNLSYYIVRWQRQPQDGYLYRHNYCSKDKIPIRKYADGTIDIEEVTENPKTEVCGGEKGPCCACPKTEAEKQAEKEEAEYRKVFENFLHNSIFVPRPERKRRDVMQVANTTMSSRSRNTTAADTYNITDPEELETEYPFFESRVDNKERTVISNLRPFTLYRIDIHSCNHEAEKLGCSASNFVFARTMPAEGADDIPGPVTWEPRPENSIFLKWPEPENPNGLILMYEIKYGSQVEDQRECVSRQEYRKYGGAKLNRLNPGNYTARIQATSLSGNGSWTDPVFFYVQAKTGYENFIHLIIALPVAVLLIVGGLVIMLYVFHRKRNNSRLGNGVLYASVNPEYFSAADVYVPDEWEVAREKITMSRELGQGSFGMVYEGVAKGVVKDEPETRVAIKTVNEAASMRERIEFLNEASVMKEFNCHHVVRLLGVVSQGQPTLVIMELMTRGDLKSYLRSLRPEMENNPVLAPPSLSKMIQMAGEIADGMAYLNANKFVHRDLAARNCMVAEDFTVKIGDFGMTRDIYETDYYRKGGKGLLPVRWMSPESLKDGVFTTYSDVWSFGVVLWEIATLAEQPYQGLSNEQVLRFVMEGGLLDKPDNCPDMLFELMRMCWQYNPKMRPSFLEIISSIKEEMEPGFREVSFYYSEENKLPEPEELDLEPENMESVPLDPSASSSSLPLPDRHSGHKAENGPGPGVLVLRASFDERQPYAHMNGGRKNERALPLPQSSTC

IC50 [1]: 1.5 nM
IC50 [2]: 1.5 nM
IC50 [3]: 1.4 nM
IC50 [4]: 1.6 nM
B1: human anti-IGF-1R antibody <IGF-1R> HUMAB Clone 18 (DSM ACC 2587) (antibody, V domains shown)
VH: QVELVESGGGVVQPGRSQRLSCAASGFTFSSYGMHWVRQAPGKGLEWVAIIWFDGSSTYYADSVRGRFTISRDNSKNTLYLQMNSLRAEDTAVYFCARELGRRYFDLWGRGTLVSVSS
VL: EIVLTQSPATLSLSPGERATLSCRASQSVSSYLAWYQQKPGQAPRLLIYDASKRATGIPARFSGSGSGTDFTLTISSLEPEDFAVYYCQQRSKWPPWTFGQGTKVESK
